The supplement of paper PMC6379048

Legend:
Assay in all cases: EC50 of free RNA motif oligo competing protein binding to immobilised probe
[1] = biological target: PTCD3 (UniProt Q96EY7)
Procedure, shortened: (§1)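 Kd was calculated as EC50, taken from a four-parameter log-logistic fit, multiplied by a protein-dependent depletion factor. The assay used HEK293-FT lysate (2.5 mg protein/well) pre-incubated for 1 h at 4°C with free RNA oligos (0 nM to 30 μM), then incubated for 30 min at 4°C with the matching oligos bound through a 5′-amino-C6 linker to NHS-Sepharose beads. Bound proteins were measured by label-free LC-MS/MS and normalised to the control.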

[2] = biological target: T1, RBM38 (UniProt Q9H0Z9)
T1 sequence: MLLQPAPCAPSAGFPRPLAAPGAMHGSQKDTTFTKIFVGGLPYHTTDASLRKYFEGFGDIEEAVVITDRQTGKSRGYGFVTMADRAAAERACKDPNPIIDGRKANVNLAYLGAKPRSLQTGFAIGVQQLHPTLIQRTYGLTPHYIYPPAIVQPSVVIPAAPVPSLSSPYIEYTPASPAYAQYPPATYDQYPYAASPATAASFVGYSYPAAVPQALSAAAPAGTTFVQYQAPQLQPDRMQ
Procedure, shortened: as §1

[3] = biological target: PCBP1 (UniProt Q15365)
Procedure, shortened: as §1

[4] = biological target: RPS3A (UniProt P61247)
Procedure, shortened: as §1

[5] = biological target: T2, PARP12 (UniProt Q9H0J9)
T2 sequence: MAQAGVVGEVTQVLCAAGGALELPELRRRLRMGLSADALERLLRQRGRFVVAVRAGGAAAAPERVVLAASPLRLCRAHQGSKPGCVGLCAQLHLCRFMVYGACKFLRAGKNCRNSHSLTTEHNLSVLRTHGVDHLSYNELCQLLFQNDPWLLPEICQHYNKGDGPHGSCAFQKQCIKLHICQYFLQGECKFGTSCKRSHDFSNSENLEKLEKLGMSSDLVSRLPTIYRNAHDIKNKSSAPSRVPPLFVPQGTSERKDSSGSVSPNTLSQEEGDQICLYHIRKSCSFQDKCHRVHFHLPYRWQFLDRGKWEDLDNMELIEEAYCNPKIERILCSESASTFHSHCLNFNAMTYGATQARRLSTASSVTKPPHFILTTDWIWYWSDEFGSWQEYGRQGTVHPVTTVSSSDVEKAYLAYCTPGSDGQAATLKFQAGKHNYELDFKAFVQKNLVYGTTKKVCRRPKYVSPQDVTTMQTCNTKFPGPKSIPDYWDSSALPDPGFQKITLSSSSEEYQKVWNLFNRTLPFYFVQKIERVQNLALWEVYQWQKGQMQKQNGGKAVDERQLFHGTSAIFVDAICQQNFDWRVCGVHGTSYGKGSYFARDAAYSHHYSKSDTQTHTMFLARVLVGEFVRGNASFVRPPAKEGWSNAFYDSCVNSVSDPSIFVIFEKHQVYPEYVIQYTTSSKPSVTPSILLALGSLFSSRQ
Procedure, shortened: as §1

[6] = biological target: P4HB (UniProt P07237)
Procedure, shortened: as §1

[7] = biological target: T3, ZRANB2 (UniProt O95218)
T3 sequence: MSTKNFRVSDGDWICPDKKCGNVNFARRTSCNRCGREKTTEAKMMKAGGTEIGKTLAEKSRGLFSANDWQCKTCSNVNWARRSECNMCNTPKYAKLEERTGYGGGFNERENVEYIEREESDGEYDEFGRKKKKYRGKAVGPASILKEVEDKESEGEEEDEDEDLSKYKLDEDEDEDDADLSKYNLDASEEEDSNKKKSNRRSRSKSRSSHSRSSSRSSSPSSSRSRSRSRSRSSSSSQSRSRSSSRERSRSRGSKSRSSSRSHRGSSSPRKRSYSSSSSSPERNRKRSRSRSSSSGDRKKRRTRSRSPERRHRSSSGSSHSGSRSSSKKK
Procedure, shortened: as §1

[8] = biological target: CPSF4 (UniProt O95639)
Procedure, shortened: as §1

[9] = biological target: T4, GPALPP1 (UniProt Q8IXQ4)
T4 sequence: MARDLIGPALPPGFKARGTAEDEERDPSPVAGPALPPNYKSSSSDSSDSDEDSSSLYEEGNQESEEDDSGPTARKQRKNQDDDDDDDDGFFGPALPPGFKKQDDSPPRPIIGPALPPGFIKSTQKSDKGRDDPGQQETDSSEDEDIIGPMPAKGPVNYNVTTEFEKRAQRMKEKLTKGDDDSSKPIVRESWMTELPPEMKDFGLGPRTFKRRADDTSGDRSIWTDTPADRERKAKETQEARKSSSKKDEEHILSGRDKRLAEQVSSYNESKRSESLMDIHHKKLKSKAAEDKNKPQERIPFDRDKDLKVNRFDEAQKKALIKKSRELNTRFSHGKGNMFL
Procedure, shortened: as §1

[10] = biological target: CSNK2A1 (UniProt P68400)
Procedure, shortened: as §1

Sequence of CPSF4 (O95639 whole entry): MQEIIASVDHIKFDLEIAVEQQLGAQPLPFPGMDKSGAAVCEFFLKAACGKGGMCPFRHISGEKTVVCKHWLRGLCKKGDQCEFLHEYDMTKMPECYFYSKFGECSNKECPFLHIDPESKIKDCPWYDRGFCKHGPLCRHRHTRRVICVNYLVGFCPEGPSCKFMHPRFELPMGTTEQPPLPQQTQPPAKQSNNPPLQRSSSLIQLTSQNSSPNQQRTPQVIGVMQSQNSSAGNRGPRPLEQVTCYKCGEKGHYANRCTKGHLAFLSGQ
Sequence of CSNK2A1 (P68400 whole entry, looked up): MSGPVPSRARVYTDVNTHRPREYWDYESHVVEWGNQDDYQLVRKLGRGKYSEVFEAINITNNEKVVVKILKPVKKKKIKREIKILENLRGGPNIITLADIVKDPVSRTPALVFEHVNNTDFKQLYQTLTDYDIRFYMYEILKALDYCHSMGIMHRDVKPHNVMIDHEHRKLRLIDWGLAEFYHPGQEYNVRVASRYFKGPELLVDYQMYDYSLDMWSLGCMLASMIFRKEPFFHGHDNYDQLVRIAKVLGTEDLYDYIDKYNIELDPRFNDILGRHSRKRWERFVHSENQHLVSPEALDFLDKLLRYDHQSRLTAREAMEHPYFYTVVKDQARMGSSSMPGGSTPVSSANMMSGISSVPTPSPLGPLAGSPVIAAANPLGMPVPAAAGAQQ
Sequence of P4HB (P07237 whole entry, looked up): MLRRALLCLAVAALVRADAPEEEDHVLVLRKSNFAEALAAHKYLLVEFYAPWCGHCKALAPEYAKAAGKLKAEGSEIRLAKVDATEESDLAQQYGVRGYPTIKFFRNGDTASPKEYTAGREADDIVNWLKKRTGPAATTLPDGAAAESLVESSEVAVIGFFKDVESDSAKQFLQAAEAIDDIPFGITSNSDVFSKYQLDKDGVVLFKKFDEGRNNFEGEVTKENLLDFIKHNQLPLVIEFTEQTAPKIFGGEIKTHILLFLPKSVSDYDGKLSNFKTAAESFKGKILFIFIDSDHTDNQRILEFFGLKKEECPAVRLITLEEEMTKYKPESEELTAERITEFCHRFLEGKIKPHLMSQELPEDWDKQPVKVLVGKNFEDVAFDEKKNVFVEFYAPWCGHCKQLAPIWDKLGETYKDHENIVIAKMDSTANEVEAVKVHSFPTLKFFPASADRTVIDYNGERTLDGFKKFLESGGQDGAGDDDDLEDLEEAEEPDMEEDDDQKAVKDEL
Sequence of PCBP1 (Q15365 whole entry): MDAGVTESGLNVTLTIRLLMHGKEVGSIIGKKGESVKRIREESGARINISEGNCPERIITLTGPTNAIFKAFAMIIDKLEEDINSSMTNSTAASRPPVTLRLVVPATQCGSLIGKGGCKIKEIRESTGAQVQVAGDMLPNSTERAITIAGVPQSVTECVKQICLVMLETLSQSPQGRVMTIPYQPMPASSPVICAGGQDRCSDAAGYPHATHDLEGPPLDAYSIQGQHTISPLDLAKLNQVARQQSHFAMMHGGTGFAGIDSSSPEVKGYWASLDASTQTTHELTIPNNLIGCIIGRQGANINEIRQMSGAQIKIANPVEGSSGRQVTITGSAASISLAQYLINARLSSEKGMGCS

## UAUUUAU
[1]
  EC50: 50 nM
[2]
  EC50: 2910 nM

## CUGUCCU
[3]
  EC50: 3360 nM
[4]
  EC50: 106 nM

## AAUAAA
[5]
  EC50: 11200 nM
[6]
  EC50: 40.4 nM
[7]
  EC50: 1900 nM
[8]
  EC50: 55.5 nM
[9]
  EC50: 33.8 nM
[10]
  EC50: 124 nM
